The results in this text go back to paper PMC9481697.

In experiment [1] the target is FlaA (TDE1712), flagellar filament sheath protein of Treponema denticola (Treponema denticola ATCC 35405). Kind of experiment: isolation of native flagellar filaments, 2D gel electrophoresis with densitometry and immunoblot. (In general: A western blot detects proteins with antibodies after separation by electrophoresis.)
Experiment [2] has the same target. Kind of experiment: isolation of native flagellar filaments, 2D gel electrophoresis with densitometry; periplasmic flagella isolated from the ΔflaB2 mutant; 2D gels, Coomassie staining, densitometry; ratios relative to FlaA.
Experiment [3] has the same target. Kind of experiment: isolation of native flagellar filaments, 2D gel electrophoresis with densitometry; periplasmic flagella isolated from the ΔflaB3 mutant; 2D gels, Coomassie staining, densitometry; ratios relative to FlaA.
For experiment [4] the target is unchanged. Kind of experiment: isolation of native flagellar filaments, 2D gel electrophoresis with densitometry; periplasmic flagella isolated from the ΔflaB1 mutant; 2D gels, Coomassie staining, densitometry; ratios relative to FlaA.

Turning to “FlaB1 (TDE1477), flagellar filament core flagellin of Treponema denticola (from UniProt Q73MN1 1-286) (natural protein)”, the stoichiometry relative to FlaA in isolated filaments (ratio relative to FlaA) in experiment [1] was found to be 0.71; in experiment [2] it was 1.04; in experiment [3], 1.12.

Turning to “FlaB2 (TDE1004), flagellar filament core flagellin of Treponema denticola (from UniProt Q73NZ6 1-286) (natural protein)”, the stoichiometry relative to FlaA in isolated filaments (ratio relative to FlaA) in experiment [4] was found to be 0.5; in experiment [1], 0.61; in experiment [3], 0.36.

Take “FlaB3 (TDE1475), flagellar filament core flagellin of Treponema denticola (from UniProt Q73MN3 1-285) (natural protein)”: the stoichiometry relative to FlaA in isolated filaments (ratio relative to FlaA) in experiment [4] stood at 0.94; in experiment [1], 0.18; in experiment [2], 0.38.
